Laboratory results from US20240116985A1 (published 2024).
Starred links: 1 amine or outer side, 2 acyl side, 3 side chain; linkers in the order of their positions; H or OH if unused. Positions of bridges follow the written chain, without caps; N, C: chain ends. Non-standard residues stand in square brackets, D forms with d. Primed or numbered codes have the meaning given here. *: point of attachment. PyrS2″ = (S)-3-amino-1-((pent-4-en-1-yloxy)carbonyl)pyrrolidine-3-carboxylic acid (stapling residue), C=CCCCOC(=O)N1CC[C@@](N[*:1])(C(=O)[*:2])C1; TriAzDap = Dap whose side chain is a 1H-1,2,3-triazol-1-yl bearing the bracketed 4-substituent; B5(3) = 2,2-bis(4-pentenyl)glycine (stitching residue), C=CCCCC(CCCC=C)(N[*:1])C(=O)[*:2]; Phe(2-CF3) = N[C@@H](Cc1ccccc1C(F)(F)F)C(=O)O; Phe(2-Cl) = N[C@@H](Cc1ccccc1Cl)C(=O)O; Bta = N[C@@H](Cc1csc2ccccc12)C(=O)O; αAllylPro = C=CC[C@@]1(C(=O)O)CCCN1; tBuAla = CC(C)(C)C[C@H](N)C(=O)O; Alaol = C[C@@H](CO)N*

T1: beta-catenin in DLD1 TCF/LEF luciferase reporter cells (UniProt P35222 1-781)
T1 sequence (looked up): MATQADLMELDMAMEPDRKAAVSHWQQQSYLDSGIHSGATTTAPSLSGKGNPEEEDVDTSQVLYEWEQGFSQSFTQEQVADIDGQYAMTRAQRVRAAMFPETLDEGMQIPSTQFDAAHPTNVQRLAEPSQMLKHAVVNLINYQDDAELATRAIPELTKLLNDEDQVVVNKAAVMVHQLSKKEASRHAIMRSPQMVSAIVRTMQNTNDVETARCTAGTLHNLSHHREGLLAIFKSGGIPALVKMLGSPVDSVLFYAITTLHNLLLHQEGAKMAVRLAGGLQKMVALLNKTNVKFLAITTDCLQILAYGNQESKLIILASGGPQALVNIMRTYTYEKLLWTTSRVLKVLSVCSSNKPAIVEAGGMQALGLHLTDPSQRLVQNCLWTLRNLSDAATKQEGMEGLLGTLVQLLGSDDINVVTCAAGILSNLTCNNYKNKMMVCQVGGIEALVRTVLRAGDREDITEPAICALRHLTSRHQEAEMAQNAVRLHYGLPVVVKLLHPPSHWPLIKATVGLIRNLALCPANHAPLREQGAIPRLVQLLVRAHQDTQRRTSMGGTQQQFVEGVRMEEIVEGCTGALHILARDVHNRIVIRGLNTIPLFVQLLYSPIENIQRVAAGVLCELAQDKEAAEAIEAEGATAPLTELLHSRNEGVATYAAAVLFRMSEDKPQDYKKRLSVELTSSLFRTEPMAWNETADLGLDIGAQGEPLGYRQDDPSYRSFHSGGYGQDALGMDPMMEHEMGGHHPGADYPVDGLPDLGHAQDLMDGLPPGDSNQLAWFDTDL

T2: B-cat-Halo (beta-catenin HaloTag NanoBRET construct expressed in HEK293 cells) (UniProt P35222 1-781)
T2 sequence (looked up): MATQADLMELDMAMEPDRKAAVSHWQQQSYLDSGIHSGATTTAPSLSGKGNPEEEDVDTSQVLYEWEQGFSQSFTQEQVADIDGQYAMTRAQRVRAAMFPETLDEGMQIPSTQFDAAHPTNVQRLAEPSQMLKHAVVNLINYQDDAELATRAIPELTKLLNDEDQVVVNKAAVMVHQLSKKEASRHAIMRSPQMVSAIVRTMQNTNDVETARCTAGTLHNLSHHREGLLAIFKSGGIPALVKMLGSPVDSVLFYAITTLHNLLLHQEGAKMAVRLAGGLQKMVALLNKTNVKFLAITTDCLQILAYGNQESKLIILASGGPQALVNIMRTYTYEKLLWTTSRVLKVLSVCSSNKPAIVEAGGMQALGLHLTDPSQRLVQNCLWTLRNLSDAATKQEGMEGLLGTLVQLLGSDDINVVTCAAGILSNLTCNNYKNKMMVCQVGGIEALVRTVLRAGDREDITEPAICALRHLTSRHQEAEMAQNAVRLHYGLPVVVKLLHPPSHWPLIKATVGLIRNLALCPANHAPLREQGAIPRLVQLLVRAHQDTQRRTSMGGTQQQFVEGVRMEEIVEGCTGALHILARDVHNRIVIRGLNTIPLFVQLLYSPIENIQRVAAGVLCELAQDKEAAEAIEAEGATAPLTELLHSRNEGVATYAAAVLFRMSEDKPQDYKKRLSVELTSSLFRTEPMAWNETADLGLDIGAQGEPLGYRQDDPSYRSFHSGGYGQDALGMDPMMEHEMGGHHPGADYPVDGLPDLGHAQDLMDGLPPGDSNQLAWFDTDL

T3: beta-catenin in DLD1 TCF/LEF luciferase reporter cells (UniProt P35222 1-781)
T3 sequence (looked up): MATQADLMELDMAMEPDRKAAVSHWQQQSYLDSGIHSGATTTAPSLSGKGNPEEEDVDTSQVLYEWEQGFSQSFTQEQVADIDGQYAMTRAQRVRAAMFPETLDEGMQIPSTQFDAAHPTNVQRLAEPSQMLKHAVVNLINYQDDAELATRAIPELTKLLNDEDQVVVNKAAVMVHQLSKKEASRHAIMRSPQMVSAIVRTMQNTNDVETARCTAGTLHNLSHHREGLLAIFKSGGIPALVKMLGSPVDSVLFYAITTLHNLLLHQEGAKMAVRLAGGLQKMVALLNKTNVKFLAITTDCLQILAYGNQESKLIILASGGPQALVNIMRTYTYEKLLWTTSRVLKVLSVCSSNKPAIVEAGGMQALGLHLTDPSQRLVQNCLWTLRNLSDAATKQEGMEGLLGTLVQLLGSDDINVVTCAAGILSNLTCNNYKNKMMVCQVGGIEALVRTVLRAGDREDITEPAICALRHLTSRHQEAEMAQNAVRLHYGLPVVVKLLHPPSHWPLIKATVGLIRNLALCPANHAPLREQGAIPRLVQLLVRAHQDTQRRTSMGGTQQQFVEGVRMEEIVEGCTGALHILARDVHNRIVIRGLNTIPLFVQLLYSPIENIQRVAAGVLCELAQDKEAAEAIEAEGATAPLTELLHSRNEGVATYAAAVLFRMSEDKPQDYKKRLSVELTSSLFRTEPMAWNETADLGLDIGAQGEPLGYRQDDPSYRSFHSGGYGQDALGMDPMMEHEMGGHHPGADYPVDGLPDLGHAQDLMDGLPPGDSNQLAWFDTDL


How the values were obtained:
Experiment in all cases: cell-based or functional assay
[1] = target: T1, beta-catenin in DLD1 TCF/LEF luciferase …
[2] = target: T2, B-cat-Halo (beta-catenin HaloTag …)
[3] = target: T3, beta-catenin in DLD1 TCF/LEF luciferase …; remark: listed apart in the source

DLD1 4% Abs IC50 [1] [µM]	NanoBRET Abs IC50 [2] [µM]	DLD1 reporter assay Abs IC50 [3] [µM]	Binder
2.1	–	–	Ac-[αAllylPro]D[tBuAla][B5(3)]D[TriAzDap](CH2CMe2CO2H)AAFL[PyrS2″][Phe(2-CF3)][Bta]S-NH2 (staple 1-4, 4-11) [I-2372]
–	16.7	10	Ac-[αAllylPro]D[tBuAla][B5(3)]DDAAFN[PyrS2″][Phe(2-Cl)][Bta]-Alaol (staple 1-4, 4-11) [I-1081]
